The values below come from PMC8948829, “The Escherichia coli Amino Acid Uptake Protein CycA: Regulation of Its Synthesis and Practical Application in L-Isoleucine Production” (Microorganisms, 2022).

The data set concerns the target T1, Crp (CRP, cAMP receptor protein) (Escherichia coli (purified from strain SA500/pHA5)) (UniProt P0ACJ8).
T1 sequence: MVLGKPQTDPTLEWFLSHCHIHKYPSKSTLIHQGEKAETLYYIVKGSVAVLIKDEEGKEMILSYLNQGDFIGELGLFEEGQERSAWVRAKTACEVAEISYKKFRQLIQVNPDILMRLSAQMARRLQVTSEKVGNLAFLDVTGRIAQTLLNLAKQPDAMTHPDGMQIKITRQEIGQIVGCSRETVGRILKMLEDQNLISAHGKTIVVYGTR
Briefly: EMSA. Particulars: 10 mM Tris-HCl pH 7.5, 1 mM EDTA, 100 mM KCl, 1 mM DTT, BSA (printed 10 g/mL), 5% glycerol, 20 uM cAMP, room temperature 30 min; 6% native PAGE, 1x TAE, 4 C.

On to “CGTTCAGCACCCTGGTGTTTGAAGTCGAACTGCTGGAAATCCTCTAAGCAGCGCATTCTGTTCCCCTCGAACGAGAGGGGAGCAGGCATTCAGCAATAAACCCTTCAGTTTGCCAAACGGCGCTATTTTGTGTTGCAAAGACCCCGTA (double strand) [PcycA fragment 3 (148 bp, no predicted Crp site)]”, for which the binding entry is given as “no binding”.
“TGTTTAAAGTGAGTGTCATATCACGGTGATAACGCGAAACAGCTCACAAAAATACACGCTTACGGGGTCTTTGCAACACAAAATAGCGCCGTTTGGCAAACTGAAGGGTTTATTGCTGAATGCCTGCTCCCCTCTCGTTCGAGGGGAACAGAATGCGCTGCTTAGAGGATTTCCAGCAGTTCGACTTCAAACACCAGGGTGCTGAACG (double strand) [PcycA fragment 1 (208 bp)]”: the binding entry was “binds”.
